The values that follow come from the Immune Epitope Database (IEDB).

For the assay, the target named is HLA-A*02:01. In words: IEDB peptide-MHC binding, purified MHC/competitive/radioactivity; ≥ and ≤ were set here for values at or beyond the usual limits of such assays. The following applies: source organism: Human alphaherpesvirus 1.
With RLVVVGWFL, the IC50 (as a rule, the concentration needed to halve the response being measured) was 865 nM. For VLTEPLCQV the value was 71 nM.

On to LLAENLPGL, for which the IC50 was 1.1 nM.

On to LLQRANELV, for which the concentration for half-maximal inhibition (IC50) was found to be 635 nM. Take YTFWRLDLV: the IC50 stood at 30 nM. On to ALVACVAAL, for which the IC50 worked out at 55 nM.

Consider QLFPGLAAL, for which the IC50 is 16 nM. Turning to RMLGDVMAV, the IC50 was 1.7 nM. Take GLFQPFMFV: the IC50 worked out at 37 nM. The result for VVTAIVYVV reads 265 nM; that for VLADAINGL, 86 nM. For FLSRPINTI the value was 528 nM; for ILLENLMRA, 19 nM; for KLCSPVFAI, 9.3 nM. As for FVVWALLGL, the IC50 came out at 196 nM. For LLLAGTPAV the value was 17 nM; for RLQEALAVV, 6.6 nM; for KLAVYYYII, 31 nM. For LLAVAVYAV the value was 5.8 nM; for ILIEGIFFA, 0.17 nM. LMHATYFLA: the IC50 is 96 nM.

Turning to LLAPGPLFV, the IC50 is 5.6 nM. Turning to GLWVCATSL, the IC50 is 36 nM. On to FLADAVVRL, for which the IC50 came out at 52 nM.

For the sequence ALGLSAFGV, the IC50 is 9.6 nM. For HMGEVPPRL the value was 1740 nM; for LLLMGCDIV, 94 nM; for YLATGALLA, 55 nM. As for EMIRYMALV, the IC50 is 179 nM. As to KMSYPQFLA, the IC50 was 1400 nM. Consider MLIDLGLDL, for which the IC50 was 14 nM. The result for LLPAVQCAV reads 63 nM; that for DMTPAELEV, 669 nM; that for GMVIACLLV, 252 nM. The result for MILALTVAI reads 45 nM; that for EMADTFLDT, 1770 nM; that for RLLQSFLKV, 82 nM.

FLHDVENFL: the IC50 was 12 nM. The result for MLLAFMTLV reads 5.7 nM; that for ALAVFQPAV, 1.6 nM. As for QLQAAIFHA, the IC50 was determined as 697 nM.

Take VTFDTLFMV: the IC50 amounted to 8.7 nM.

TLLELVVSV: the IC50 was determined as 1.8 nM. As for FIPQYLSAV, the IC50 turned out to be 15 nM. For LLAQFQHTV the value was 1.2 nM; for RIQQYMFFM, 81 nM. The result for LLANTVRYL reads 75 nM; that for RVYNIIQLV, 19700 nM; that for GLNGDSFRV, 22 nM. As for FMQPDNANL, the IC50 stood at 47 nM.

Consider FLGSCICFI, for which the IC50 is 12 nM. Take GQAAALTDL: the IC50 was determined as 2300 nM.

As to LMDGHTGMV, the IC50 stood at 184 nM.

For the sequence CLAEYCTSL, the IC50 is 186 nM. For YLCDNFCPA, the IC50 was found to be 27 nM. ALVAWLTHA: the IC50 turned out to be 15 nM. In the case of FLVPGTHVA, the IC50 was 45 nM. For FLAASALGV the value was 7.4 nM; for DLWNVMYTL, 333 nM. The result for LLFNSLYPA reads 1.5 nM; that for ALMRGRPGL, 1680 nM. RLPPHTQPV: the IC50 amounted to 31 nM. On to TLRGLFFSV, for which the IC50 stood at 94 nM. For GIAWYVTSI the value was 143 nM.

Consider ALMGAVTSL, for which the IC50 came out at 4.2 nM. WLLQITVLL: the IC50 came to 130 nM.

As to FTATSIARV, the IC50 came to 74 nM. Consider LLLALRHPA, for which the IC50 stood at 600 nM.

On to SQLAHLVYV, for which the half-inhibitory concentration (IC50) was determined as 62 nM. For ALGMRGLVL the value was 491 nM; for RLPHICYPV, 17 nM. For LLIDTGVYA the value was 94 nM; for VLCGIAWYV, 7.9 nM.

As to FLTREILWA, the IC50 amounted to 4.2 nM. For AVGELLAPV the value was 84 nM.

On to LVLNMVYSI, for which the IC50 was found to be 94 nM. The result for ALYYSVENV reads 38 nM; that for FMVSSIDEL, 1.1 nM. On to FLRSCHWVL, for which the IC50 amounted to 582 nM. For the sequence ILVVSLLLV, the IC50 stood at 205 nM.

TLLDFAHGL: the IC50 turned out to be 10 nM. The result for FMSVVNTNI reads 60 nM; that for GLAVAMEV, 25 nM. The result for SLLSLEHTL reads 55 nM; that for LLYDLSTTA, 43 nM.

ALAPVFAFL: the IC50 was 2.2 nM. For KMAQCTLAV, the IC50 was 14 nM.

Take MVIACLLVA: the IC50 was 166 nM. For LITDDGEVV the value was 13700 nM. For VLGAAVYAL the value was 100 nM; for GLISFYNFL, 1.5 nM. The result for ITMGMPYAV reads 23 nM; that for ALLPAPITL, 132 nM. RLIDRMLTA: the IC50 amounted to 8.6 nM. For IIWGELFGV the value was 2.3 nM. For the sequence FVADVQHAA, the IC50 stood at 7750 nM. For LLAKMLFYL the value was 5.6 nM; for CMFGVVSPA, 9.5 nM; for FLLAKLTDI, 10 nM.

Consider FLSTLPSDV, for which the IC50 turned out to be 76 nM. The result for YLACELLPA reads 4.7 nM; that for FLNQANCKI, 458 nM. For TLIPRLFAL the value was 35 nM.

Regarding KTWFLVPLI, the IC50 stood at 1.7 nM. As for FMTALVLSL, the IC50 came out at 0.8 nM. For FALDRPCLV the value was 76 nM; for LLLHSLTPL, 6.9 nM. Consider LLAFDTQPV, for which the IC50 is 9.3 nM.

Consider FLRYHCPGL, for which the IC50 stood at 188 nM. The result for ILYSVLQHL reads 55 nM. Turning to LLDDLGFSA, the IC50 worked out at 46 nM. On to FLQPTADLL, for which the IC50 came to 26 nM.

Regarding KMNQTLLFL, the IC50 stood at 907 nM. Consider GLLGSLVGA, for which the IC50 is 3.7 nM. As for ILMHATYFL, the IC50 stood at 1.2 nM. For GLLRVGADT the value was 23900 nM. With GLYLCVVYV, the IC50 stood at 47 nM. SLLLVVEGV: the IC50 was 8.8 nM.

On to SPGGFVQFV, for which the IC50 was determined as 450 nM. For YLARAAGLV the value was 210 nM; for RMFGMPTAL, 5.5 nM. For ALLGAWPAV the value was 2.5 nM. For VLFSGPSPL the value was 7.9 nM. Consider VLWSLLWLG, for which the IC50 turned out to be 1.4 nM. As for LLLAVAVYA, the IC50 turned out to be 93 nM. The result for ALHQCFTEL reads 831 nM; that for SMFASCNLL, 29 nM; that for GLAVDLYAL, 12 nM. AVHDPERPL: the IC50 stood at 3940 nM. For ALSPVLPPM the value was 30 nM; for SQTQPPAPV, 781 nM; for GLVLVWYTV, 66 nM. On to FTLPVLTFV, for which the IC50 turned out to be 1.1 nM. For RLCLDVPPV the value was 8.5 nM; for RLTEDDFGL, 77 nM; for ALAFDSTRV, 649 nM.

On to VLLGAPVVV, for which the 50% inhibitory concentration (IC50) was determined as 14 nM. Take QLLADFPEA: the IC50 was 133 nM. For YLACLAAVI the value was 61 nM. Turning to FLCTADAAV, the IC50 was 3 nM. Consider RLATHLRAV, for which the IC50 was 159 nM. For GVVIIAALV the value was 1080 nM; for WLETELVFV, 85 nM. On to IIPFLLVLV, for which the IC50 is 55 nM.

Turning to CLSDLLGFL, the IC50 came to 88 nM. For SLQQELAHM the value was 71 nM.

VIACLLVAV: the 50% inhibitory concentration (IC50) was 205 nM. For LLMACAFWC the value was 974 nM; for FLGGHVAVA, 65 nM.

For the sequence AVWISLAQV, the IC50 amounted to 259 nM. Turning to SLLALNEAL, the IC50 amounted to 54 nM. The result for FVALIPPTL reads 704 nM; that for SLYDVEFDA, 9.7 nM; that for ALMAGYFKI, 49 nM.

With LLFVLLVAL, the IC50 came out at 1130 nM. For FLTTPVPSL the value was 111 nM; for LLLNTTLTV, 2.9 nM. Turning to ALLQQTWTL, the IC50 amounted to 0.39 nM. Turning to QLLDPPAAV, the IC50 was determined as 186 nM. For YLREYVTRL the value was 115 nM; for GLFQEAYPL, 5.4 nM. Turning to GMLICLTVL, the IC50 was 548 nM. In the case of FLLKQFHAA, the IC50 was 53 nM. For LMPSPPMPV the value was 124 nM; for LLLVRAYWL, 63 nM. The result for VLNTLMFMV reads 14 nM; that for YVLNSQIAV, 121 nM. As to FAASANFFL, the IC50 was found to be 142 nM. Take YLSEEMMEL: the IC50 was 6.3 nM. The result for ALATALTEA reads 10 nM; that for FLASLVVLA, 1.7 nM. Turning to AVLADFSLV, the IC50 is 134 nM.

Regarding RLAEAVVSA, the IC50 was 75 nM. On to GMRGLVLAT, for which the IC50 came to 3660 nM. The result for SLMNVDAAV reads 9.7 nM; that for YFHALVYFV, 133 nM. Turning to LLVEVLREI, the IC50 amounted to 1.6 nM.

On to FVGVIILGV, for which the IC50 stood at 5.9 nM. For AIVVVIILV the value was 6910 nM. Consider LMFDPRALA, for which the IC50 is 762 nM.

As for FLTPLSVTL, the IC50 was found to be 4.7 nM. The result for HMFCDPMCA reads 796 nM. Regarding FVVYNLTGV, the IC50 stood at 2.2 nM.

For the sequence NIGAYVVLV, the IC50 came out at 282 nM. On to FLAPELVRA, for which the IC50 came out at 12 nM. The result for QLLSAVDYI reads 127 nM. The result for IVYLCPVLV reads 137 nM; that for SLLWLGAGV, 54 nM.

VMAAVCLQI: the IC50 was 15 nM. For the sequence VLDEVMSTL, the IC50 stood at 45 nM. The result for YILNKPVFI reads 52 nM; that for ALHTALATV, 16 nM. The result for RLASLLTYA reads 7.9 nM; that for GLFFSVYAL, 23 nM; that for MQFVDRFVV, 209 nM. With YMAKLHAYL, the IC50 stood at 11 nM. The result for FTQKSLFPI reads 84 nM; that for GLGRHLWRL, 133 nM. The result for CLLCNLLLV reads 60 nM.
